Test results: article PMC7599888

Target: Sulfolobus solfataricus poly(ADP-ribose) polymerase-like thermoprotein (PARPSso) (S. solfataricus)
Assay: SDS-PAGE band shift with silver staining; PARPSso (3 ug, 65 pmol) mixed with Sso7 at 1:0.5, 1:1 and 1:3 mol/mol in 10 mM Na-phosphate/10 mM EDTA pH 7.5, 80 °C for 20 min (once at 45 °C); 5-12% gradient SDS-PAGE

Chain of Sulfolobus solfataricus poly(ADP-ribose) polymerase-like thermoprotein (PARPSso) (S. solfataricus) (B3EWG9 whole entry): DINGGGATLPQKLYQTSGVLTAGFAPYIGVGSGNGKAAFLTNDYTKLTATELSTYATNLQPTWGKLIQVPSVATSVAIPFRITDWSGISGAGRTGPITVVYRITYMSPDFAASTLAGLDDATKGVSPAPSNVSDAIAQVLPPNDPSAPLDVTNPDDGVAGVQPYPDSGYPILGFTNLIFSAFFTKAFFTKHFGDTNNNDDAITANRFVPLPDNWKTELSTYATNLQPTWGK

In the case of “Sso7 protein (from UniProt P39476 1-64) (natural protein)”, the stoichiometry N is reported as 3.
